Data reported in patent US20050272649A1, “Conjoint administration of morphogens and ACE inhibitors in treatment of chronic renal failure” (priority 2002, published 2005).
Several values for one entry are separate records, joined by “and”; a condition that tells them apart may be missing. Equal entries are not always repeated. Entries after “also recorded” stand apart in the source; their conditions may differ. Where two headings read alike, the source gives them in different places.

Legend:
[1] = test system: unilateral ureteral ligation in Sprague-Dawley rats; test: Unilateral Ureteral Obstruction (UUO) renal fibrosis model; assay type: in vivo, rat; conditions: for loss of medullary tissue in the kidney: untreated about 24%
Description: This UUO model was employed essentially as described (Moller, et al. (1984) Virchows Arch 402: 209-237, the entire contents of which are incorporated herein by reference). Sprague-Dawley rats (about 250 g) underwent either a sham operation (ureter manipulated but not ligated) or unilateral ureteral ligation. Two ligatures, 5 mm apart, were placed in the upper two-thirds of the ureter over a section of polyethylene tubing placed around the ureter (see FIG. 17). The suture tied to obstruct the ureter was removed along with the tubing at day 5, relieving the obstruction. […] Uremia is avoided by the function of the contralateral kidney, which undergoes hypertrophy and hyperplasia as the obstructed kidney is destroyed. The renal injury of UUO is mediated in part through stimulation of renal angiotensin II production, which activates type-1 A-II Receptor and the downsteam TGF-β in a cascade of events culminating in tubulointerstitial inflammation and fibrosis. Inhibition of angiotensin II production by ACE inhibitors (or inhibition of A-II receptors) decreases expansion of the renal interstitium associated with fibrosis.
The effect of OP-1 on Renal fibrosis has been published (Hruska, et al. (2000) Am J Physiol Renal Physiol 279:F130-43, incorporated herein by reference), and a summarization is as follows. […] Additional effects of OP-1 have been observed in this rat UUO model.

[2] = test system: streptozotocin diabetic Sprague-Dawley rats; assay type: in vivo; conditions: for Protein Ex (mg/day), urine protein excretion / kidney weight: at 32 weeks; for Mortality: deaths/animals; for GFR (ml/min/100 g bw): inulin clearance at 32 weeks; for prevalence of sclerotic glomeruli (glomerulosclerosis): DM vehicle 10.7±4.0%
Method: A long-term streptozotocin model of diabetic nephropathy was used to test and compare the therapeutic actions of BMP-7 with those of Enalapril. The study design was a treatment protocol beginning at 16 weeks when glomerular hypertrophy and proteinuria were established. The effects of therapy with BMP-7 (10, 30, or 100 μg/kg iv, biw) were compared to a maximal dose of Enalapril (20 mg/kg) and to a vehicle control. […] The GFR of 32 week diabetic Enalapril treated rats was 0.58±0.06 (not significant compared to vehicle treated and sham injected rats 0.55±0.02).
Animals: Female Sprague-Dawley rats 10 weeks of age weighing 190-220 g were used. Animals were allowed free access to standard rat chow and to tap water. Diabetes mellitus was induced by a single tail-vein injection of Streptozotocin (STZ 62 mg/kg of body weight, Sigma chemical company, St. Louis, Mo.) dissolved in normal saline at day 0. The diabetic state was confirmed 72 hours later by the determination of blood glucose concentration>300 mg/dl. From day 3, all the diabetic rats received daily subcutaneous injections of 1.0-7.0 u human recombinant long-acting insulin injection (Eli Lilly & Co., Indianapolis, Ind.) as required to maintain the blood glucose concentration between 300-500 mg/dl. Tail blood glucose levels were measured twice a week with an Accu—Chek™ Advantage meter (Roche Diagnostic Corporation, Indianapolis, Ind.). Body weights were taken once a week. Food and water intake were monitored daily.
Renal hypertrophy was well developed at 16 weeks prior to treatment with vehicle, BMP-7, or enalapril. […], animals were divided into 8 groups. Group 1 were 16 weeks of DM. Group 2 were 16 weeks normal controls. Group 3 DM animals were treated with tail-vein injection of vehicle twice a week for 16 weeks. Group 4, Group 5, and Group 6 were DM animals treated with tail-vein injections of BMP-7 100, 30, and 10 μg/kg body weight respectively twice a week for 16 weeks. Group 7 were treated with Enalapril 20 mg/kg through the drinking water for 16 weeks. […] Group 1 and Group 2 animals were sacrificed at 16 weeks. The others were sacrificed at 32 weeks. All treatments began at 16 weeks and continued through 32 weeks. Glomerular filtration rate (GFR), urine albumin excretion, kidney weight, glomerular area, mesangial matrix area, interstitial volume, monocyte and macrophage infiltration, thickness of glomerular basement membrane (GBM) and glomerulosclerosis were measured.
Renal Function: In all animals, glomerular filtration rate (GFR) was measured as the clearance of inulin. Rats were anesthetized with a Ketamine/Xylozine cocktail. A catheter was inserted into the femoral vein under a dissecting microscope for infusion. Another catheter was placed into the femoral artery for collecting blood samples. Urine was collected by bladder cannulation.
After the completion of surgery, a bolus of 2 ml/kg of 3% inulin (Cypros Pharmaceutical Corp, W. Carlsbad, Calif.) and 0.2% p-aminohippurate (PAH) in normal saline was infused as a priming load, followed by a sustaining infusion of the same solution at the rate of 8 ml/h·kg. Urine collection was initiated for three 20-minute collection periods after an hour of equilibration. An arterial blood sample was obtained during each clearance period. Plasma and urine were analyzed for inulin.
Urine volume was measured and urinary protein concentration was determined with a Bio-Rad protein assay.
Preparation of Kidneys: After the clearance studies, the rats were euthanized. Both kidneys were rapidly removed and placed in ice-cold phosphate buffered saline (PBS). Kidneys were weighed and then sliced on a cold glass plate. Two 2 mm coronal sections were immersed in Histochoice and in 10% buffered formalin. Kidney sections were embedded in paraffin and cut at 3 μm and stained with hematoxylin and eosin, Gomori's Trichrome and periodic acid Schiff (PAS).
Renal Morphology: The morphometric analysis was done in a blind manner. […]

[3] = BMP-7 10 μg/kg iv twice a week, weeks 16-32
[4] = BMP-7 10 μg/kg iv twice a week, weeks 16-32, listed as BMP
[5] = BMP-7 30 μg/kg iv twice a week, weeks 16-32
[6] = BMP-7 30 μg/kg iv twice a week, weeks 16-32, listed as BMP
[7] = BMP-7 100 μg/kg iv twice a week (high dose), weeks 16-32
[8] = BMP-7 100 μg/kg iv twice a week (high dose), weeks 16-32, listed as BMP
[9] = BMP-7 100 μg/kg iv twice a week, weeks 16-32

B1: OP-1: osteogenic protein-1 (OP-1, also known as BMP-7), morphogen of the OP/BMP family; OP-1 used interchangeably with sBMP-7 (protein)
chain: STGSKQRSQNRSKTPKNQEALRMANVAENSSSDQRQACKKHELYVSFRDLGWQDWIIAPEGYAAYYCEGECAFPLNSYMNATNHAIVQTLVHFINPETVPKPCCAPTQLNAISVLYFDDSSNVILKKYRNMVVRACGCH
- loss of medullary tissue in the kidney ([1]; OP-1 at 100 μg/kg): about 16%
- loss of medullary tissue in the kidney ([1]; OP-1 at 300 μg/kg): about 13%
- loss of medullary tissue / medullary necrosis (in words) ([1]; UUO rats): reduces tubular atrophy and medullary necrosis; also recorded: significantly reduced the loss of medullary tissue
- renal BMP-7 expression (in situ hybridization) ([2]; 32 weeks): restored BMP-7 expression at high levels in the collecting duct; also recorded: restored BMP-7 expression in its normal pattern at high levels; also recorded: restored the normal distribution of BMP-7 expression
- renal Wnt4 expression (in situ hybridization) ([2]; 32 weeks): without affecting Wnt4 expression; also recorded: do not affect Wnt4 expression; also recorded: had no effect on Wnt4 expression
- Cause-Mortality unknown ([2]; BMP-7 10 μg/kg iv twice a week): 2/9
- Protein Ex (mg/day), urine protein excretion [2, 3]: 59.46 ± 21.84 mg/day
- kidney weight [2, 3]: 1.19 ± 0.03 g
- Protein Ex (mg/day), urine protein excretion [2, 4]: 59.46 ± 21.84 mg/day
- kidney weight [2, 4]: 1.19 ± 0.03 g
- Mortality [2, 3]: 2/9
- GFR (ml/min/100 g bw) [2, 3]: 0.59±0.07 ml/min/100 g bw
- GFR (ml/min/100 g bw) [2, 4]: 0.59 ± 0.07 ml/min/100 g bw
- prevalence of sclerotic glomeruli (glomerulosclerosis) ([2]; BMP-7 10 μg/kg, weeks 16-32): 4.1±1.4%
- Cause-Mortality anesthesia ([2]; BMP-7 30 μg/kg iv twice a week): 1/9
- Protein Ex (mg/day), urine protein excretion [2, 5]: 33.02 ± 9.11 mg/day
- kidney weight [2, 5]: 1.19 ± 0.03 g
- Protein Ex (mg/day), urine protein excretion [2, 6]: 33.02 ± 9.11 mg/day
- kidney weight [2, 6]: 1.19 ± 0.03 g
- Mortality [2, 5]: 1/9
- GFR (ml/min/100 g bw) [2, 5]: 0.61±0.09 ml/min/100 g bw and 0.62±0.09 ml/min/100 g bw
- GFR (ml/min/100 g bw) [2, 6]: 0.62 ± 0.09 ml/min/100 g bw
- prevalence of sclerotic glomeruli (glomerulosclerosis) ([2]; BMP-7 30 μg/kg, weeks 16-32): 3.5±0.8%
- Cause-Mortality hypoglycemia ([2]; BMP-7 100 μg/kg iv twice a week): 1/10
- kidney weight [2, 7]: 1.10 ± 0.03 g
- kidney weight [2, 8]: 1.10 ± 0.03 g
- GFR (ml/min/100 g bw) [2, 7]: 0.7±0.08 ml/min/100 g bw
- GFR (ml/min/100 g bw) [2, 8]: 0.70 ± 0.08 ml/min/100 g bw
- Protein Ex (mg/day), urine protein excretion [2, 9]: 14.27 ± 3.50 mg/day
- Protein Ex (mg/day), urine protein excretion ([2]; BMP-7 100 μg/kg iv twice a week, weeks 16-32, listed as BMP): 14.27 ± 3.50 mg/day
- Mortality [2, 9]: 1/10
- prevalence of sclerotic glomeruli (glomerulosclerosis) ([2]; BMP-7 100 μg/kg, weeks 16-32): 2.1±0.3%
- cortical interstitial area / volume ([2]; BMP-7 high dose (100 μg/kg), weeks 16-32, DM vehicle 13.1±0.7%): 10.7±0.3%
- monocyte/macrophage tubulointerstitial infiltration ([2]; ED-1 positive cells, 32 weeks): decreased the tubulointerstitial infiltration
- mesangial matrix accumulation (in words) ([2]; PAS / Trichrome histology at 32 weeks): dose dependent reduction in the accumulation of mesangial matrix; also recorded: more effective than Enalapril; also recorded: greater mesangial matrix accumulation than the two higher doses
- glomerular area / glomerular hypertrophy (in words) ([2]; treatment weeks 16-32): significantly decreased; also recorded: partially reversed glomerular hypertrophy; also recorded: equally effective
- glomerulosclerosis (in words) ([2]; treatment weeks 16-32): prevented by BMP-7 therapy more effectively than by Enalapril; also recorded: prevented the development of glomerulosclerosis; also recorded: markedly reduced; also recorded: prevented the development of glomerular sclerosis; also recorded: more effective than Enalapril; also recorded: decreased glomerular sclerosis; also recorded: significantly better than that of Enalapril
- interstitial volume (in words) ([2]; treatment weeks 16-32): significantly decreased; also recorded: reversed the increase in the expanded interstitial volume; also recorded: equally effective
- systolic blood pressure (tail artery cuff) ([2]; treatment weeks 16-32): did not effect blood pressure until the final four weeks of therapy; also recorded: had no effect on blood pressure until after 28 weeks; also recorded: blood pressures were normalized; also recorded: did not affect blood pressure until late in the course of the study; also recorded: did not affect blood pressure until the last four weeks of therapy
- urine protein excretion / proteinuria / albuminuria (in words) ([2]; treatment weeks 16-32): reversed to normal; also recorded: more effective in reversing proteinuria; also recorded: dose dependently eliminated proteinuria; also recorded: more effective than Enalapril
- GFR (in words) ([2]; treatment weeks 16-32, versus vehicle-treated diabetic and normal rats): normal or greater; also recorded: restored glomerular filtration rate to normal; also recorded: more effective than Enalapril; also recorded: restored GFR to normal or slightly above normal
- kidney weight / renal hypertrophy (in words) ([2]; treatment weeks 16-32, versus vehicle-treated diabetic rats): equal in partially reversing kidney hypertrophy; also recorded: partially reversed diabetic renal hypertrophy; also recorded: partially restored kidney weights towards normal; also recorded: equally effective
